Laboratory results taken from article PMC3020078.
“And” between values parts separate entries of the source, which are not always exact repeats. Equal values may be shown once.

Assays:
[1] = molecular target: cpMVP vaults (MVP with an N-terminal cysteine rich peptide); test: SAXS
[2] = molecular target: cpMVPvsvg vaults (MVP with an N-terminal cysteine rich peptide and a C-terminal VSVG tag); test: co-IP

percent of the protein mass as full vaults [1]	Substance	stoichiometry N (HisT7MVP:cpMVPvsvg) [2]
46% and 49%	cpMVP vaults (MVP with an N-terminal cysteine rich peptide) (natural protein)	
	HisT7MVP vaults (MVP with N-terminal T7 tag) (from UniProt Q62667 1-861) (natural protein)	0.8
